Experimental data published in US6844486 (TEMASEK LIFE SCIENCES LABORATORY, dated 2005).

B1: GAL4 activation domain-NAC1 fusion, first 142 amino acids of NAC1 (plasmid pGANAC1 1-142) (other, not shown: large carriers)
chain: METEEEMKESSISMVEAKLPPGFRFHPKDDELVCDYLMRRSLHNNHRPPLVLIQVDLNKCEPWDIPKMACVGGKDWYFYSQRDRKYATGLRTNRATATGYWKATGKDRTILRKGKLVGMRKTLVFYQGRAPRGRKTDWVMHE
notes: Yeast two-hybrid prey
B2: GAL4 activation domain-NAC1 fusion, NAC1 amino acids 143 to the C-terminus (plasmid pGANAC1 143-324) (other, not shown: large carriers; small tags and cut ends)
chain: FRLQGSHHPPNHSLSSPKEDWVLCRVFHKNTEGVICRDNMGSCFDETASASLPPLMDPYINFDQEPSSYLSDDHHYIINEHVPCFSNLSQNQTLNSNLTNSVSELKIPCKNPNPLFTGGSASATLTGLDSFCSSDQMVLRALLSQLTKIDGSLGPKESQSYGEGSSESLLTDIGIPSTVWNC
notes: Yeast two-hybrid prey

Molecular target: T1, GAL4 DNA binding domain-NAC1 fusion, first 199 amino acids of NAC1 (plasmid pGBNAC1 1-199) (Arabidopsis thaliana)
T1 construct: Yeast two-hybrid bait used as the fixed partner for testing the deletions; also called pGBNACl1-199; 199 amino acid version
Experiment: yeast two-hybrid in HF7c, HIS3 reporter
Text: Two-hybrid analysis (Bartel et al., 1993; Fields and Song, 1989; Chevray and Nathans, 1992; Lee et al., 1995) was applied to dimerization analysis. The yeast strain HF7c (MATa ura3–52 his3–200 ade2–101 lys2–801 trp1–901 leu2–3,112 gal4–542 gal 80–538 LYS2::GAL1$UAS$-GAL1$TATA$-HIS3 URA3::GAL4_{17mers(x3)}-CyC1$TATA$-LacZ which contains the two reporter genes LacZ and HIS3 was used. Yeast cotransformation with plasmids carrying the different Gal4 DNA binding domain and the Gal4 activation domain fusion was performed by methods known to those of skill in the art. See, e.g., Burke and Olson, 1986; Rudolph et al., 1985; Sakai et al., 1984. Other conditions have been described in detail elsewhere and are well known to those of skill in the art. To corroborate the interaction between the two fusion proteins, â-galactosidase activity was assayed by a replica filter assay.

| Binder | binding result |
| --- | --- |
| B1 | no binding |
| B2 | no binding |
